Measurements taken from the supplement of paper PMC5998384.

Key:
HeLa Kyoto [1] = assay: solubility in G1/S (NP-40 vs SDS abundance) (log2 ratio); higher = more soluble; conditions: cell cycle stage: G1/S
HeLa Kyoto [2] = assay: melting temperature (median over replicates), in situ; higher = more thermally stable
HeLa Kyoto [3] = assay: solubility change mitosis vs G1/S (difference of NP-40 vs SDS log2 ratios) (log2 ratio difference); higher = more soluble in mitosis
HeLa Kyoto [4] = assay: thermal stability score vs G1/S (z-score of summed log2 fold changes over temperatures); higher = more thermally stable than in G1/S
[5] = cell cycle stage: early G1 (4.5 h after nocodazole release)
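Throughout, for melting temperature (median over replicates), in situ: HeLa Kyoto cells synchronized by double thymidine or nocodazole block, proteins quantified by TMT10plex mass spectrometry, three independent biological replicates.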
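Throughout, for solubility change mitosis vs G1/S (difference of NP-40 vs SDS log2 ratios): synchronized HeLa Kyoto cells (double thymidine block for G1/S, nocodazole release for mitosis), protein amounts in NP-40 versus SDS lysates quantified by mass spectrometry, three biological replicates.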
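Throughout, for solubility in G1/S (NP-40 vs SDS abundance): HeLa Kyoto cells arrested at G1/S by double thymidine block, proteins quantified by TMT10plex mass spectrometry in mild NP-40 versus SDS extracts, three biological replicates.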
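Throughout, for thermal stability score vs G1/S (z-score of summed log2 fold changes over temperatures): synchronized HeLa Kyoto cells, proteins quantified by TMT10plex mass spectrometry, three biological replicates, mitosis taken 0.5 h after nocodazole release, G1/S directly after double thymidine block.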

Row | Sequence | solubility in G1/S (log2) (HeLa Kyoto [1]) | melting temperature (HeLa Kyoto [2]; cell cycle stage: G1/S) | melting temperature (HeLa Kyoto [2]; cell cycle stage: mitosis) | solubility change mitosis (log2) (HeLa Kyoto [3]) | thermal stability score (HeLa Kyoto [4]; [5]) | thermal stability score (HeLa Kyoto [4]; cell cycle stage: mitosis)
1 | MSDSWVPNSASGQDPGGRRRAWAELLAGRVKREKYNPERAQKLKESAVRLLRSHQDLNALLLEVEGPLCKKLSLSKVIDCDSSEAYANHSSSFIGSALQDQASRLGVPVGILSAGMVASSVGQICTAPAETSHPVLLTVEQRKKLSSLLEFAQYLLAHSMFSRLSFCQELWKIQSSLLLEAVWHLHVQGIVSLQELLESHPDMHAVGSWLFRNLCCLCEQMEASCQHADVARAMLSDFVQMFVLRGFQKNSDLRRTVEPEKMPQVTVDVLQRMLIFALDALAAGVQEESSTHKIVRCWFGVFSGHTLGSVISTDPLKRFFSHTLTQILTHSPVLKASDAVQMQREWSFARTHPLLTSLYRRLFVMLSAEELVGHLQEVLETQEVHWQRVLSFVSALVVCFPEAQQLLEDWVARLMAQAFESCQLDSMVTAFLVVRQAALEGPSAFLSYADWFKASFGSTRGYHGCSKKALVFLFTFLSELVPFESPRYLQVHILHPPLVPGKYRSLLTDYISLAKTRLADLKVSIENMGLYEDLSSAGDITEPHSQALQDVEKAIMVFEHTGNIPVTVMEASIFRRPYYVSHFLPALLTPRVLPKVPDSRVAFIESLKRADKIPPSLYSTYCQACSAAEEKPEDAALGVRAEPNSAEEPLGQLTAALGELRASMTDPSQRDVISAQVAVISERLRAVLGHNEDDSSVEISKIQLSINTPRLEPREHMAVDLLLTSFCQNLMAASSVAPPERQGPWAALFVRTMCGRVLPAVLTRLCQLLRHQGPSLSAPHVLGLAALAVHLGESRSALPEVDVGPPAPGAGLPVPALFDSLLTCRTRDSLFFCLKFCTAAISYSLCKFSSQSRDTLCSCLSPGLIKKFQFLMFRLFSEARQPLSEEDVASLSWRPLHLPSADWQRAALSLWTHRTFREVLKEEDVHLTYQDWLHLELEIQPEADALSDTERQDFHQWAIHEHFLPESSASGGCDGDLQAACTILVNALMDFHQSSRSYDHSENSDLVFGGRTGNEDIISRLQEMVADLELQQDLIVPLGHTPSQEHFLFEIFRRRLQALTSGWSVAASLQRQRELLMYKRILLRLPSSVLCGSSFQAEQPITARCEQFFHLVNSEMRNFCSHGGALTQDITAHFFRGLLNACLRSRDPSLMVDFILAKCQTKCPLILTSALVWWPSLEPVLLCRWRRHCQSPLPRELQKLQEGRQFASDFLSPEAASPAPNPDWLSAAALHFAIQQVREENIRKQLKKLDCEREELLVFLFFFSLMGLLSSHLTSNSTTDLPKAFHVCAAILECLEKRKISWLALFQLTESDLRLGRLLLRVAPDQHTRLLPFAFYSLLSYFHEDAAIREEAFLHVAVDMYLKLVQLFVAGDTSTVSPPAGRSLELKGQGNPVELITKARLFLLQLIPRCPKKSFSHVAELLADRGDCDPEVSAALQSRQQAAPDADLSQEPHLF [FANCA] | -0.182 | 47.9 °C | 48.3 °C | 0.00288 | 0.523 | 1.07
2 | MSDVEENNFEGRESRSQSKSPTGTPARVKSESRSGSRSPSRVSKHSESHSRSRSKSRSRSRRHSHRRYTRSRSHSHSHRRRSRSRSYTPEYRRRRSRSHSPMSNRRRHTGSRANPDPNTCLGVFGLSLYTTERDLREVFSRYGPLSGVNVVYDQRTGRSRGFAFVYFERIDDSKEAMERANGMELDGRRIRVDYSITKRAHTPTPGIYMGRPTHSGGGGGGGGGGGGGGGGRRRDSYYDRGYDRGYDRYEDYDYRYRRRSPSPYYSRYRSRSRSRSYSPRRY [TRA2A] | -1.11 | 49.1 °C | 49.5 °C | 0.522 | 1.2 | 1.92
3 | MSELEQLRQEAEQLRNQIRDARKACGDSTLTQITAGLDPVGRIQMRTRRTLRGHLAKIYAMHWGTDSRLLVSASQDGKLIIWDSYTTNKVHAIPLRSSWVMTCAYAPSGNFVACGGLDNICSIYSLKTREGNVRVSRELPGHTGYLSCCRFLDDNQIITSSGDTTCALWDIETGQQTVGFAGHSGDVMSLSLAPDGRTFVSGACDASIKLWDVRDSMCRQTFIGHESDINAVAFFPNGYAFTTGSDDATCRLFDLRADQELLMYSHDNIICGITSVAFSRSGRLLLAGYDDFNCNIWDAMKGDRAGVLAGHDNRVSCLGVTDDGMAVATGSWDSFLKIWN [GNB2] | -0.771 | 55.6 °C | 55.5 °C | -0.136 | -0.768 | -0.878
4 | MSEPIRVLVTGAAGQIAYSLLYSIGNGSVFGKDQPIILVLLDITPMMGVLDGVLMELQDCALPLLKDVIATDKEDVAFKDLDVAILVGSMPRREGMERKDLLKANVKIFKSQGAALDKYAKKSVKVIVVGNPANTNCLTASKSAPSIPKENFSCLTRLDHNRAKAQIALKLGVTANDVKNVIIWGNHSSTQYPDVNHAKVKLQGKEVGVYEALKDDSWLKGEFVTTVQQRGAAVIKARKLSSAMSAAKAICDHVRDIWFGTPEGEFVSMGVISDGNSYGVPDDLLYSFPVVIKNKTWKFVEGLPINDFSREKMDLTAKELTEEKESAFEFLSSA [MDH1] | 0.43 | 57.2 °C | 56.8 °C | -0.111 | -0.848 | 0.036
